Target: human PD-L1 on PD-L1 aAPC/CHO-K1 cells (human) (UniProt Q9NZQ7)
Sequence (Q9NZQ7 19-290): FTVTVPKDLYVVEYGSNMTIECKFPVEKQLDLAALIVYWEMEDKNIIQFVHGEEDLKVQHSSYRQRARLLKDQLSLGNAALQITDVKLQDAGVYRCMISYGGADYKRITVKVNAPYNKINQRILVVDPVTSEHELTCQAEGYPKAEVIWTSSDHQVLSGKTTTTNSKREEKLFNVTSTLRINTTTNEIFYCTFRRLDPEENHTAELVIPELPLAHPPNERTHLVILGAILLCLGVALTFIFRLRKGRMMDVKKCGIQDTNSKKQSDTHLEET

EC50 (read off the curve), fold induction, PD1/PD-L1 blockade cell bioassay: 0.5 nM
Substance: Atezolizumab (antibody)
